From the supplement of paper PMC7877785
± gives the uncertainty stated by the source.

Assay: self-splicing fitness, log relative to wild type (ln ratio); higher = more splicing; Tetrahymena group I intron in knt gene, E. coli kanamycin selection, DiMSum; sequences stand for … in CUCUCU…GGAGGGAAAAGUUAUCAGGCAUGCACCUGGUAGCUAGUCUUUAAACCAAUAGAUUGCAUCGGUUUAAAAGGCAAGACCGUCAAAUUGCGGGAAAGGGGUCAACAGCCGUUCAGUACCAAGUCUCAGGGGAAACUUUGAGAUGGCCUUGCAAAGGGUAUGGUAAUAAGCUGACGGACAUGGUCCUAACCACGCAGCCAAGUCCUAAGUCAACAGAUCUUCUGUUGAUAUGGAUGCAGUUCACAGACUAAAUGUCGGUCGGGGAAGAUGUAUUCUUCUCAUAAGAUAUAGUCGGACCUCUCCUUAAUGGGAGCUAGCGGAUGAAGUGAUGCAACACUGGAGCCGCUGGGAACUAAUUUGUAUGCGAAAGUAUAUUGAUUAGUUUUGGAGUACUCGUGGUCG
In short: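 A randomised library covering all eight P1ex-region intron nucleotides was built with the intron in the knt kanamycin-resistance gene on pET-22b(+) and held in E. coli BL21(DE3). Cells were grown overnight at 37°C or 30°C on LB agar, with or without 25 μg/mL kanamycin, plus 100 μg/mL carbenicillin, 50 μM IPTG and 0.2% rhamnose, and pooled colonies were amplicon-sequenced on an Illumina HiSeq 2500. DiMSum fitness is the error-weighted combination of wild-type-normalised replicate fold changes, kanamycin versus none.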

Sequence: UGUAAGCAAUAUUACGUAUU
- self-splicing fitness (ln) (30 °C): -2.86 ± 0.11
- self-splicing fitness (ln) (37 °C): -0.873 ± 0.083

Sequence: UGUAAGCAAUAUUACGUCCA
- self-splicing fitness (ln) (30 °C): 0.388 ± 0.1
- self-splicing fitness (ln) (37 °C): -0.132 ± 0.12

Sequence: UGUAAGCAAUAUUACGUGAG
- self-splicing fitness (ln) (30 °C): -1.07 ± 0.047
- self-splicing fitness (ln) (37 °C): -0.92 ± 0.077

Sequence: UGUAAGCAAUAUUACGUGCC
- self-splicing fitness (ln) (30 °C): -1.46 ± 0.2
- self-splicing fitness (ln) (37 °C): -0.0201 ± 0.22

Sequence: UGUAAGCAAUAUUACGUGGG
- self-splicing fitness (ln) (30 °C): -3.6 ± 0.19
- self-splicing fitness (ln) (37 °C): -2.42 ± 0.22

Sequence: UGUAAGCAAUAUUACGUUAA
- self-splicing fitness (ln) (30 °C): -2.04 ± 0.13
- self-splicing fitness (ln) (37 °C): -0.926 ± 0.12

Sequence: UGUAAGCAAUAUUACGUUCU
- self-splicing fitness (ln) (30 °C): -0.123 ± 0.085
- self-splicing fitness (ln) (37 °C): -0.0225 ± 0.1

Sequence: UGUCAGCAAUAUUACGACAU
- self-splicing fitness (ln) (30 °C): -3.964 ± 0.028
- self-splicing fitness (ln) (37 °C): -2.58 ± 0.04

Sequence: UGUCAGCAAUAUUACGAUAG
- self-splicing fitness (ln) (30 °C): -0.276 ± 0.072
- self-splicing fitness (ln) (37 °C): 0.347 ± 0.088

Sequence: UGUCAGCAAUAUUACGAUCA
- self-splicing fitness (ln) (30 °C): -0.048 ± 0.086
- self-splicing fitness (ln) (37 °C): -0.0719 ± 0.11

Sequence: UGUCAGCAAUAUUACGCCGG
- self-splicing fitness (ln) (30 °C): -2.61 ± 0.5
- self-splicing fitness (ln) (37 °C): -0.725 ± 0.36

Sequence: UGUCAGCAAUAUUACGCUAU
- self-splicing fitness (ln) (30 °C): -1.83 ± 0.11
- self-splicing fitness (ln) (37 °C): -1.3 ± 0.12

Sequence: UGUCAGCAAUAUUACGGCAA
- self-splicing fitness (ln) (30 °C): -0.754 ± 0.075
- self-splicing fitness (ln) (37 °C): -0.0955 ± 0.098

Sequence: UGUCAGCAAUAUUACGGGGG
- self-splicing fitness (ln) (30 °C): -2.6 ± 0.14
- self-splicing fitness (ln) (37 °C): -1.64 ± 0.15

Sequence: UGUCAGCAAUAUUACGUACG
- self-splicing fitness (ln) (30 °C): -0.208 ± 0.15
- self-splicing fitness (ln) (37 °C): 0.45 ± 0.15

Sequence: UGUCAGCAAUAUUACGUCCA
- self-splicing fitness (ln) (30 °C): -0.159 ± 0.094
- self-splicing fitness (ln) (37 °C): -0.505 ± 0.12

Sequence: UGUCAGCAAUAUUACGUUUU
- self-splicing fitness (ln) (30 °C): -3.83 ± 0.2
- self-splicing fitness (ln) (37 °C): -2.23 ± 0.14

Sequence: UGUGAGCAAUAUUACGAAAU
- self-splicing fitness (ln) (30 °C): -3.01 ± 0.18
- self-splicing fitness (ln) (37 °C): -3.22 ± 0.35

Sequence: UGUGAGCAAUAUUACGAAUU
- self-splicing fitness (ln) (30 °C): -4.64 ± 0.46
- self-splicing fitness (ln) (37 °C): -1.8 ± 0.45

Sequence: UGUGAGCAAUAUUACGAGUG
- self-splicing fitness (ln) (30 °C): -1.4 ± 0.071
- self-splicing fitness (ln) (37 °C): -1.16 ± 0.08

Sequence: UGUGAGCAAUAUUACGAUCA
- self-splicing fitness (ln) (30 °C): -0.397 ± 0.23
- self-splicing fitness (ln) (37 °C): -0.874 ± 0.32

Sequence: UGUGAGCAAUAUUACGCAAC
- self-splicing fitness (ln) (30 °C): -2.24 ± 0.28
- self-splicing fitness (ln) (37 °C): -2.4 ± 0.46

Sequence: UGUGAGCAAUAUUACGCACA
- self-splicing fitness (ln) (30 °C): -2.63 ± 0.29
- self-splicing fitness (ln) (37 °C): -2.84 ± 0.34

Sequence: UGUGAGCAAUAUUACGCCCU
- self-splicing fitness (ln) (30 °C): -1.54 ± 0.44
- self-splicing fitness (ln) (37 °C): -0.113 ± 0.36

Sequence: UGUGAGCAAUAUUACGCCGA
- self-splicing fitness (ln) (30 °C): -3.5 ± 0.39
- self-splicing fitness (ln) (37 °C): -1.77 ± 0.27

Sequence: UGUGAGCAAUAUUACGCCUA
- self-splicing fitness (ln) (30 °C): -0.115 ± 0.23

Sequence: UGUGAGCAAUAUUACGCGAG
- self-splicing fitness (ln) (30 °C): -2.69 ± 0.22
- self-splicing fitness (ln) (37 °C): -1.63 ± 0.23

Sequence: UGUGAGCAAUAUUACGCGCU
- self-splicing fitness (ln) (30 °C): -2.53 ± 0.27
- self-splicing fitness (ln) (37 °C): -3.1 ± 0.37

Sequence: UGUGAGCAAUAUUACGCGUA
- self-splicing fitness (ln) (30 °C): -2.35 ± 0.34
- self-splicing fitness (ln) (37 °C): -0.703 ± 0.27

Sequence: UGUGAGCAAUAUUACGGCAC
- self-splicing fitness (ln) (30 °C): -3.21 ± 0.23
- self-splicing fitness (ln) (37 °C): -2.21 ± 0.23

Sequence: UGUGAGCAAUAUUACGGGCA
- self-splicing fitness (ln) (30 °C): -0.886 ± 0.069
- self-splicing fitness (ln) (37 °C): -0.176 ± 0.081

Sequence: UGUGAGCAAUAUUACGGGGU
- self-splicing fitness (ln) (30 °C): -3.98 ± 0.21
- self-splicing fitness (ln) (37 °C): -2.75 ± 0.28

Sequence: UGUGAGCAAUAUUACGGGUC
- self-splicing fitness (ln) (30 °C): -4.25 ± 0.33
- self-splicing fitness (ln) (37 °C): -2.41 ± 0.19

Sequence: UGUGAGCAAUAUUACGGUUU
- self-splicing fitness (ln) (30 °C): -3.66 ± 0.21
- self-splicing fitness (ln) (37 °C): -2.65 ± 0.25

Sequence: UGUGAGCAAUAUUACGUAAU
- self-splicing fitness (ln) (37 °C): -2.2 ± 0.27

Sequence: UGUGAGCAAUAUUACGUACC
- self-splicing fitness (ln) (30 °C): -1.1 ± 0.23
- self-splicing fitness (ln) (37 °C): -0.269 ± 0.28

Sequence: UGUGAGCAAUAUUACGUAGA
- self-splicing fitness (ln) (37 °C): -0.751 ± 0.44

Sequence: UGUGAGCAAUAUUACGUAGG
- self-splicing fitness (ln) (30 °C): -3.5 ± 0.16
- self-splicing fitness (ln) (37 °C): -1.5 ± 0.14

Sequence: UGUGAGCAAUAUUACGUAUG
- self-splicing fitness (ln) (30 °C): -1.22 ± 0.1
- self-splicing fitness (ln) (37 °C): -1.26 ± 0.12
